# Measurements reported in paper PMC7954794, “Protein context shapes the specificity of SH3 domain-mediated interactions in vivo” (Nature Communications, 2021).
# B1: ABP1: yeast SH3-containing protein; SH3-deleted (D) or gene-deleted (KO) strain (protein, UniProt P15891 2-592, looked up)
# Actin-binding protein: ALEPIDYTTHSREIDAEYLKIVRGSDPDTTWLIISPNAKKEYEPESTGSSFHDFLQLFDETKVQYGLARVSPPGSDVEKIIIIGWCPDSAPLKTRASFAANFAAVANNLFKGYHVQVTARDEDDLDENELLMKISNAAGARYSIQTSSKQQGKASTPPVKKSFTPSKSPAPVSKKEPVKTPSPAPAAKISSRVNDNNDDDDWNEPELKERDFDQAPLKPNQSSYKPIGKIDLQKVIAEEKAKEDPRLVQKPTAAGSKIDPSSDIANLKNESKLKRDSEFNSFLGTTKPPSMTESSLKNDDDKVIKGFRNEKSPAQLWAERKAKQNSGNAETKAEAPKPEVPEDEPEGEPDVKDLKSKFEGLAASEKEEEEMENKFAPPPKKSEPTIISPKPFSKPQEPVKAEEAEQPKTDYKKIGNPLPGMHIEADNEEEPEENDDDWDDDEDEAAQPPLPSRNVASGAPVQKEEPEQEEIAPSLPSRNSIPAPKQEEAPEQAPEEEIEEEAEEAAPQLPSRSSAAPPPPPRRATPEKKPKENPWATAEYDYDAAEDNELTFVENDKIINIEFVDDDWWLGELEKDGSKGLFPSNYVSLGN
# B2: YBL039C (protein, UniProt P28274 1-579, looked up)
# CTP synthase 1: MKYVVVSGGVISGIGKGVLASSTGMLMKTLGLKVTSIKIDPYMNIDAGTMSPLEHGECFVLDDGGETDLDLGNYERYLGVTLTKDHNITTGKIYSHVIAKERKGDYLGKTVQIVPHLTNAIQDWIERVAKIPVDDTGMEPDVCIIELGGTVGDIESAPFVEALRQFQFKVGKENFALIHVSLVPVIHGEQKTKPTQAAIKGLRSLGLVPDMIACRCSETLDKPTIDKIAMFCHVGPEQVVNVHDVNSTYHVPLLLLEQKMIDYLHARLKLDEISLTEEEKQRGLELLSKWKATTGNFDESMETVKIALVGKYTNLKDSYLSVIKALEHSSMKCRRKLDIKWVEATDLEPEAQESNKTKFHEAWNMVSTADGILIPGGFGVRGTEGMVLAARWARENHIPFLGVCLGLQIATIEFTRSVLGRKDSHSAEFYPDIDEKNHVVVFMPEIDKETMGGSMRLGLRPTFFQNETEWSQIKKLYGDVSEVHERHRHRYEINPKMVDELENNGLIFVGKDDTGKRCEILELKNHPYYIATQYHPEYTSKVLDPSKPFLGLVAASAGILQDVIEGKYDLEAGENKFNF
# Test system: Abp1 PPIs
# Assay: DHFR-PCA of Abp1 SH3-swapped baits (Fig. 2B-D, S2C, S2F);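 on Protein-protein interaction distance between Abp1 SH3-swapped baits, to ABP1: Euclidean distance between DHFR-PCA score profiles of the baits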;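 on Protein-protein interaction distance between Abp1 SH3-swapped baits, to BEM1-2: Euclidean distance between DHFR-PCA score profiles of the baits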;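 on Protein-protein interaction distance between Abp1 SH3-swapped baits, to BOI1: Euclidean distance between DHFR-PCA score profiles of the baits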;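 on Protein-protein interaction distance between Abp1 SH3-swapped baits, to BZZ1-1: Euclidean distance between DHFR-PCA score profiles of the baits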
# Format: cell-based, Saccharomyces cerevisiae
# How it was run: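 Yeast DHFR-PCA in which Abp1 baits, carrying their SH3 replaced by CRISPR–Cas9 with one of 27 yeast SH3s or human CTTN, HCLS1 or DBNL SH3s, were mated against 575 SH3-associated DHFR F[3] preys plus 40 negative controls. Four tests were run per PPI. Diploids were selected twice (48 h, 30 °C), then grown 4 days on PCA selection media.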
molecule,measurement,setting,value
B1,"Protein-protein interaction distance between Abp1 SH3-swapped baits, to ABP1","Abp1 bait with swapped SH3, distance to bait with ABP1 SH3, sheet Fig2C",0.00
same,"Protein-protein interaction distance between Abp1 SH3-swapped baits, to BBC1","distance to Abp1 bait with BBC1 SH3, sheet Fig2C",7.08
same,"Protein-protein interaction distance between Abp1 SH3-swapped baits, to BEM1-1","distance to Abp1 bait with BEM1-1 SH3, sheet Fig2C",14.06
same,"Protein-protein interaction distance between Abp1 SH3-swapped baits, to BEM1-2","distance to Abp1 bait with BEM1-2 SH3, sheet Fig2C",32.3
same,"Protein-protein interaction distance between Abp1 SH3-swapped baits, to BOI1","distance to Abp1 bait with BOI1 SH3, sheet Fig2C",11.59
same,"Protein-protein interaction distance between Abp1 SH3-swapped baits, to BOI2","distance to Abp1 bait with BOI2 SH3, sheet Fig2C",14.52
same,"Protein-protein interaction distance between Abp1 SH3-swapped baits, to BUD14","distance to Abp1 bait with BUD14 SH3, sheet Fig2C",17.23
same,"Protein-protein interaction distance between Abp1 SH3-swapped baits, to BZZ1-1","distance to Abp1 bait with BZZ1-1 SH3, sheet Fig2C",9.504
same,"Protein-protein interaction distance between Abp1 SH3-swapped baits, to BZZ1-2","distance to Abp1 bait with BZZ1-2 SH3, sheet Fig2C",10.54
same,"Protein-protein interaction distance between Abp1 SH3-swapped baits, to CDC25","distance to Abp1 bait with CDC25 SH3, sheet Fig2C",26.13
same,"Protein-protein interaction distance between Abp1 SH3-swapped baits, to CTTN","distance to Abp1 bait with CTTN SH3, sheet Fig2C",9.394
same,"Protein-protein interaction distance between Abp1 SH3-swapped baits, to CYK3","distance to Abp1 bait with CYK3 SH3, sheet Fig2C",26.78
same,"Protein-protein interaction distance between Abp1 SH3-swapped baits, to DBNL","distance to Abp1 bait with DBNL SH3, sheet Fig2C",8.805
same,"Protein-protein interaction distance between Abp1 SH3-swapped baits, to FUS1","distance to Abp1 bait with FUS1 SH3, sheet Fig2C",18.44
same,"Protein-protein interaction distance between Abp1 SH3-swapped baits, to HCLS1","distance to Abp1 bait with HCLS1 SH3, sheet Fig2C",7.682
same,"Protein-protein interaction distance between Abp1 SH3-swapped baits, to HOF1","distance to Abp1 bait with HOF1 SH3, sheet Fig2C",30.98
same,"Protein-protein interaction distance between Abp1 SH3-swapped baits, to HSE1","distance to Abp1 bait with HSE1 SH3, sheet Fig2C",9.43
same,"Protein-protein interaction distance between Abp1 SH3-swapped baits, to LSB1","distance to Abp1 bait with LSB1 SH3, sheet Fig2C",13.24
same,"Protein-protein interaction distance between Abp1 SH3-swapped baits, to LSB3","distance to Abp1 bait with LSB3 SH3, sheet Fig2C",13.53
same,"Protein-protein interaction distance between Abp1 SH3-swapped baits, to MYO3","distance to Abp1 bait with MYO3 SH3, sheet Fig2C",12.85
same,"Protein-protein interaction distance between Abp1 SH3-swapped baits, to MYO5","distance to Abp1 bait with MYO5 SH3, sheet Fig2C",12.37
same,"Protein-protein interaction distance between Abp1 SH3-swapped baits, to NBP2","distance to Abp1 bait with NBP2 SH3, sheet Fig2C",16.16
same,"Protein-protein interaction distance between Abp1 SH3-swapped baits, to PEX13","distance to Abp1 bait with PEX13 SH3, sheet Fig2C",10.96
same,"Protein-protein interaction distance between Abp1 SH3-swapped baits, to PIN3","distance to Abp1 bait with PIN3 SH3, sheet Fig2C",11.43
same,"Protein-protein interaction distance between Abp1 SH3-swapped baits, to RVS167","distance to Abp1 bait with RVS167 SH3, sheet Fig2C",9.548
same,"Protein-protein interaction distance between Abp1 SH3-swapped baits, to SDC25","distance to Abp1 bait with SDC25 SH3, sheet Fig2C",33.14
same,"Protein-protein interaction distance between Abp1 SH3-swapped baits, to SHO1","distance to Abp1 bait with SHO1 SH3, sheet Fig2C",8.989
same,"Protein-protein interaction distance between Abp1 SH3-swapped baits, to SLA1-1","distance to Abp1 bait with SLA1-1 SH3, sheet Fig2C",28.73
same,"Protein-protein interaction distance between Abp1 SH3-swapped baits, to SLA1-2","distance to Abp1 bait with SLA1-2 SH3, sheet Fig2C",19.01
same,"Protein-protein interaction distance between Abp1 SH3-swapped baits, to SLA1-3","distance to Abp1 bait with SLA1-3 SH3, sheet Fig2C",13.16
same,"Protein-protein interaction distance between Abp1 SH3-swapped baits, to YSC84","distance to Abp1 bait with YSC84 SH3, sheet Fig2C",13.97
B2,medrep (log2 median colony size normalized to plate background),"Fig2B, bait ABP1, label = prey, Replicates 4",3.877
